Test results from the supplement of paper PMC7125110.
± gives the standard error. For part of these data: Variants at the floor of the assay were thinned out.

B1: glmS ribozyme (parent)
chain: AUAAAAGCGCCAGAACUACAGAAAUGUAGUUGACGAGGAGGAGGUUUAUCGAAUUUUCGGCGGAUGCCUCCAAA

Columns and labels:
Conditions in all cases: with glucosamine-6-phosphate
[1] = variants of: B1; assay: kcat; higher = faster cleavage; RNA array
Method in brief: (§1)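 Barcoded ribozyme variants were transcribed in situ on sequenced MiSeq chips by E. coli RNA polymerase. At 37 °C, a hybridised Cy3 probe tracked them while glucosamine-6-phosphate (40 μM to 10 mM) in HEPES/KCl/Mg(OAc)2 buffer flowed in and tiles were imaged over ~14 h. Per-tile medians of signals normalised to baseline and to non-cleaving reference variants were fit to one- or two-exponential decays, giving kobs. kcat and KM came from weighted Michaelis–Menten fits across concentrations.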

[2] = variants of: B1; assay: self-cleavage kobs at 160 uM GlcN6P; higher = faster cleavage; RNA array
Method in brief: as §1

[3] = variants of: B1; assay: self-cleavage kobs at 2500 uM GlcN6P; higher = faster cleavage; RNA array
Method in brief: as §1

[4] = variants of: B1; assay: KM; higher = weaker cofactor use; RNA array
Method in brief: as §1

[5] = variants of: B1; assay: self-cleavage kobs at 40 uM GlcN6P; higher = faster cleavage; RNA array
Method in brief: as §1

[6] = variants of: B1; assay: self-cleavage kobs at 10000 uM GlcN6P; higher = faster cleavage; RNA array
Method in brief: as §1

[7] = variants of: B1; assay: self-cleavage kobs at 640 uM GlcN6P; higher = faster cleavage; RNA array
Method in brief: as §1

Q: What does the source list for AUAAAAGCGCGAGAACUACAGAAAUGUAGUUGUCGAGGAGGAGGUUUAUCGAAUUUUCGGCGGAUGCCUCCAAA [C11G A33U]?
A: kcat [1]: < 1e-05 s⁻¹; self-cleavage kobs at 160 uM GlcN6P [2]: < 1e-05 s⁻¹; self-cleavage kobs at 2500 uM GlcN6P [3]: < 1e-05 s⁻¹

Q: Which results are given for AUAAAAGCGCGGGAACUACAGAAAUGUAGUUGACGAGGAGGAGGUUUAUCGAAUUUUCGGCGGAUGCCUCCAAA [C11G A12G]?
A: kcat [1]: < 1e-05 s⁻¹; KM [4]: 16.2 ± 6.9 µM; self-cleavage kobs at 40 uM GlcN6P [5]: < 1e-05 s⁻¹; self-cleavage kobs at 160 uM GlcN6P [2]: < 1e-05 s⁻¹; self-cleavage kobs at 10000 uM GlcN6P [6]: < 1e-05 s⁻¹

Q: What does the source list for AUAAAAGCGCAAGAACUACAGAAAUGUAGUUGACGAGGAGGAGGUUUAUCGAAGUUUCGGCGGAUGCCUCCAAA [C11A U54G]?
A: kcat [1]: 0.000149 ± 2.7e-05 s⁻¹; self-cleavage kobs at 2500 uM GlcN6P [3]: 7.77e-05 ± 1.3e-05 s⁻¹; self-cleavage kobs at 10000 uM GlcN6P [6]: 0.000123 ± 1.4e-05 s⁻¹

Q: For AUAAAAGCGCGAGAACUACAGAAAUGUAGUUGACGAGGAGGAGGUUUAUCGAAUUUUCGGCGGAUACCUCCAAA [C11G G66A], which kcat [1] is on record?
A: < 1e-05 s⁻¹

Q: And the “self-cleavage kobs at 40 uM GlcN6P” value [5]?
A: < 1e-05 s⁻¹

Q: What about the “self-cleavage kobs at 160 uM GlcN6P” value [2] of the same variant?
A: < 1e-05 s⁻¹

Q: What about the “self-cleavage kobs at 640 uM GlcN6P” value [7] of the same variant?
A: < 1e-05 s⁻¹

Q: What about the “self-cleavage kobs at 10000 uM GlcN6P” value [6] of the same variant?
A: < 1e-05 s⁻¹

Q: With AUAAAAGCGCAAGAACUACAGAAAUGUAGUUGACGAGGAGGAGGUUUAUCGAAUUUGCGGCGGAUGCCUCCAAA [C11A U57G] as the variant, how does the kcat [1] read?
A: < 1e-05 s⁻¹

Q: And the “self-cleavage kobs at 160 uM GlcN6P” value [2]?
A: < 1e-05 s⁻¹

Q: How did the kcat [1] turn out when AUAAAAGCGCAAGAACUACAGAAAUGUAGUUGACGAGGAGGAGGUUUAUCGAAUUUCCGGCGGAUGCCUCCAAA [C11A U57C] was run?
A: < 1e-05 s⁻¹

Q: And the “self-cleavage kobs at 640 uM GlcN6P” value [7]?
A: < 1e-05 s⁻¹

Q: Which kcat [1] does the source give for AUAAAAGCGCGAGGACUACAGAAAUGUAGUUGACGAGGAGGAGGUUUAUCGAAUUUUCGGCGGAUGCCUCCAAA [C11G A14G] here?
A: 1.62e-05 ± 3.1e-06 s⁻¹

Q: What about the “self-cleavage kobs at 40 uM GlcN6P” value [5] of the same variant?
A: < 1e-05 s⁻¹

Q: What about the “self-cleavage kobs at 160 uM GlcN6P” value [2] of the same variant?
A: < 1e-05 s⁻¹

Q: Which results are given for AUAAAAGCGCAAGAACUACAGAAAUGUAGUUGACGAGGAGGAGGUUUAACGAAUUUUCGGCGGAUGCCUCCAAA [C11A U49A]?
A: kcat [1]: < 1e-05 s⁻¹; self-cleavage kobs at 640 uM GlcN6P [7]: < 1e-05 s⁻¹; self-cleavage kobs at 2500 uM GlcN6P [3]: < 1e-05 s⁻¹

Q: For AUAAAAGCGCUAGACCUACAGAAAUGUAGUUGACGAGGAGGAGGUUUAUCGAAUUUUCGGCGGAUGCCUCCAAA [C11U A15C], which kcat [1] is on record?
A: 0.000738 ± 0.00012 s⁻¹

Q: What about the KM [4] of the same variant?
A: 2490 ± 850 µM

Q: What about the “self-cleavage kobs at 160 uM GlcN6P” value [2] of the same variant?
A: 2.57e-05 ± 1.1e-05 s⁻¹

Q: And the “self-cleavage kobs at 640 uM GlcN6P” value [7]?
A: 0.000194 ± 2.9e-05 s⁻¹

Q: What about the “self-cleavage kobs at 2500 uM GlcN6P” value [3] of the same variant?
A: 0.000368 ± 6.1e-05 s⁻¹

Q: And the “self-cleavage kobs at 10000 uM GlcN6P” value [6]?
A: 0.000585 ± 4.9e-05 s⁻¹

Q: For AUAAAAGCGCAAGAACUACAGAAAUGUAGUUGACGAGGAGGAGGUUUAUCGAAUCUUCGGCGGAUGCCUCCAAA [C11A U55C], which kcat [1] is on record?
A: 0.000132 ± 2.4e-05 s⁻¹

Q: What about the “self-cleavage kobs at 640 uM GlcN6P” value [7] of the same variant?
A: 3.19e-05 ± 1.5e-05 s⁻¹

Q: And the “self-cleavage kobs at 2500 uM GlcN6P” value [3]?
A: 0.000125 ± 4.2e-05 s⁻¹

Q: What about the “self-cleavage kobs at 10000 uM GlcN6P” value [6] of the same variant?
A: 0.000109 ± 2.1e-05 s⁻¹

Q: Which kcat [1] does the source give for AUAAAAGCGCGAGAACUACAGAAAUGUAGUUGACGAGGAGGAGGUUUAUCGAAUUUUCUGCGGAUGCCUCCAAA [C11G G59U] here?
A: 0.000116 ± 2.9e-05 s⁻¹

Q: And the “self-cleavage kobs at 2500 uM GlcN6P” value [3]?
A: 0.000106 ± 2.1e-05 s⁻¹

Q: What about the “self-cleavage kobs at 10000 uM GlcN6P” value [6] of the same variant?
A: 9.62e-05 ± 1.5e-05 s⁻¹
